From the nanobody polyreactivity screen of Harvey et al. (2022)

Test: yeast display, Sf9 membrane polyspecificity reagent, FACS + sequencing; frameworks hold sequencing errors
Method in brief: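 Sorting gates, low and high (top ~1%), were placed on anti-HA fluorescence to track expression and on streptavidin fluorescence to track reagent binding. A clone's polyreactivity label is taken from the gate it came out of. The reagent was 10% biotinylated, detergent-solubilized Sf9 membrane, applied for 1 hour at 4 °C to galactose-induced yeast display cells.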

Sequence | polyreactivity (PSR sort gate)
QVQLVESGGGLVQAGGSLRLSCAASGSIFSGYAMGWYRQAPGKERELVAAITWRAASTYYADSVKGRFTISRDNAKNTVYLQMNSLKPEDTAVYYCAKEGWPKPAFYYWGQGTQVTVSS | low polyreactivity
QVQLVESGGGLVQAGGSLRLSCAASGFTFISNAMGWYRQAPGKERELVAAISSSGGRTYYADSVKGRFTSSRDNAKNTVYLQMNSLKPEDTAVYYCNADRSLLYSRKIEYDYWGQGTQVSVSS | low polyreactivity
QVQLVESGGGLVQAGGSLRLSCAASGRTFSANAMGWYRQAPGKERELVATISSGGRTNYADSVKGRFTISRDNAMNTVYLQMNSLKPEDTAVYYCAADFDYAYWDTTYDYWGQGTQVTVSS | low polyreactivity
QVQLVESGGGLVQAGGSLRLSCAASGFIFVKYAMGWYRQAPGKERELVAAISSTGGRTYYADSVKGRFTISRDNAKNTVYLQMNSLKPEVTAVYYCATEYGYPYGYWGQCTQVTVSS | high polyreactivity
QVQLVESGGGLVQAGGRLRLSCAASGSTFYLNAMGWYRPAHGKERELVAAITRIGGSTYYADSVKGRFTISRDNAKNTVYLQMYSLTPEDTAVYYCAKDYGQARHDRYGYWGAGTQVTVSS | low polyreactivity
QEQLQESGGGLVQEGGSLRLSCAASGNISPPADMGWYRQAPGKERELVASIGTGGTTNYADSVKGRFTISRDNAKNTVYLQMNSLKPDDTAVYYCAAVRYEYNPYDYWGQGTQVTVSS | low polyreactivity
QVQLVESGGGLVQAGGSLRLSCAASGSTFKYYAMGWYRQAPGKERELVASISRGGSTNYADSVKGRFTISRDNAKNTVYLQMNSLKPEDTAVYYCAKRRAGTAYDYWGQGTQVTVSS | high polyreactivity
QVQLHESGGGLVQAGGSLRLSCAAIGTISYSGPMGWYRQAPGKEREFVAGIGVGSNTNYADSVKGRYTIIRDNAKNTVYLQMNSLKPEDSAVYYCAVGGYAPLGRPYWGQGTQVTVSS | low polyreactivity
QVQLVESGGGLVHAGGSLRLSCAASGSIFCTNVMGWYRQAPGKERELVAAISYSDGSTYYADSVKGRFTISRDNAKNTVYLQMNILKPEDSAVYYCADYLYYYWGGYDYWGQGTQVTVSS | low polyreactivity
QVQLVESGGGLVQAGGSHRLSCAASGRTFKGNAMGWYRQAPGQERELVAAISSRGGRTFYADSVKGRYTISRDNAKNTVYLQMNSLKPDDTAVYDCAAYSPLTKTPDSPVRYDYWGQGTQVTVSS | high polyreactivity
QVQLVESGGGLVQAGGSLRLSCAASGSIFKANAMGWYRQAPGKESELVATITSSGTRTYYADSVKGRFTISRDNAKNTVYLQMNSLKPEDTAVYYCNARAYPYQRGRYGYWGQGTQVTVSS | high polyreactivity
QVQLVESGGGLVQAGGSLRLSSAGSGSPFRSNAMGWYRQAPGKERELVAAISQRGGSTYYADSVKGRFTISRDNAKNPVYLQMNSLKAVDTAVYYCAKVSKRVGFPTAMNYWGQGTQVTVSS | high polyreactivity
QVQLVESGGGLVQAGGSLRLSCAASGFIFGAYAMGWYRQAPGKERELVAAISRRGGSTYYADSVKGRFTISRDNAKNTVYLQMNSLKPEDTAVYYCAADISGSYYRPQYDYWGQGTQVTVSS | low polyreactivity
QVQLVESGGGLVQAGCSLRLSCDASGRIFVTNAMGWYRQAPGKERELVAANSYRGGRTYYADSVKGRFTISRDNAKNTVYLQMNSLKPEDTAVYYCNAVTRWPFDYWGQGTQVTVSS | high polyreactivity
QVQLVESGGGLVQAGGSLRLSCAASGRIFWTNAMGWYRQAPGKERELVAGITWRGGSTYYADSVKGRFTISRDNAKNTVYLQMNSLKPEDTAVYYCATRQGWYSGFDYWGQGTQVTVSS | high polyreactivity
QVQIVESGGGLVQAGGSLRLSCAASGSTFGGNAMGWYRQAPGKERELVASITSSGGSTYYADSVKGRFTISRDNAKNTVYLQMNSLKPEDTAVYYCAAGKWYRSPWKYDYWGQGTQVTVSS | low polyreactivity
QVQLVESGGGLVQAGGSLRLSCAASGSTFVYYAMGWYRQAPGKERELVAAIRYSGASTYYADSVKGRFTISRDNAKNTVYLQMNSLKPEDTAVYYCAASSRTFGYKYYYWGQGTQVTVSS | high polyreactivity
QVQLVESGGGLVQAGGSLRLSCAASGRTLTAYAMGWYRQAPGKERELVAAISVTGDNTYYADSVKGRFTISRDNAKNTVYLQMNSLKPEDTAVYYCDARKQYKYGYWGQGTQVTVSS | low polyreactivity
QVQLVESGGRLVQAGGSLRLSCAASGSIFWYNSMGWYRQAPGKERELVAAISRRGGTTYADSVKGRFSISRDNAKYTVYLQLNSLKPEDTAVSYCGTTYTSRYYPYDYWGQGTQVTVSS | high polyreactivity
QVQLVESGGGLEQAGGSLRLSCAASGLIFRGYVMGWYRPAPGKERELVAAISRRGVNTYYADSVKGRFTISRDNSKNTVYLQMNSLKPEDTAVYYCAAETHVGWPAKFDYWGQGTQVTVSS | high polyreactivity
QVQLVESGGGLVQAGGSLRLSCAASGFTFPRYAMGWYRQAPGKERELVAVITRRGGSTYYADSVKGRFTISRDNAKNTVYLQMNSLKPEDTAVYDCAASDPSNKSSRPGYSYDSDSWGQGTQVTVSS | high polyreactivity
QVLLVESGGGLVQAGGSLRLSCAASGSIFGYKDMGWYRQAPGKERELVASITRGGGRTRYADSVKGRFTISRDNAKNTVYLQMNSLKPEDTAVYYCAADKLSYSYVRPPRNHEDYWGQGTQVTVSS | low polyreactivity

Sequence | polyreactivity (PSR sort gate)
QVHLVDSGGGLVQAGGSLRLSCSASGLIFSGYAMRWYRQAPGKERELVAAITRRGSRTYYADSVTGRFTISRDKAKNTVYLQMNSLKPEDTAVYYCAADRFQGRDDYWGQGTQVTVSS | high polyreactivity
QVQLVESGGGLVQSGGILLLSCAASGITFGRNAMGWYRQAPGKEGELVAAISRGGSTNYADSVKGRFTISRDNAKNTVYLQMNRLKPEDTAVYYCATAYRGRAWGYDYWGQGTQVTVSS | high polyreactivity
QVQLVESGGGLVQAGGSLRLSCAASGRISVFNAMGWYRQAPGKDRELVAAITNGGSTNYADSVKVRFTISRDNAKNTVYLLMNSLKPEDTAVYDCAASVGTYAYGRTVYRYDYWGQGTQVTVSS | low polyreactivity
QGQLVESGGGLVQAGGSLRLSCAASGYIFDWYAMGWYRQAPGKEREFVAAISGSDGSTYYADSVKGRFTISRDNAKNTVYLQMNSLKPEDSAVYYCAADPYYGEMEYWGQGTQVTVSS | low polyreactivity
QVQLVESGVGLVQAGGSLRLSCAASGSTFRGYAMGWYRQAPGKERELVAAISGIGGSTYYADSVKGRFTISRDNAKNTVYLQMNSLKPEDTAVYYCNAVSGDSGDYWGQGTQVTVSS | low polyreactivity
QVQLVESGGGLVQAGGSLRLICAASGGIFYFNAMGWYRQAPGKERELVASITWSGGNTYYADSVKGRFTISRDNAKNTVYLQMNSLKPEDTAVYYCAADTQEYRPTYDYWGQGTQVTVSS | low polyreactivity
QVQLVESGGGLVQAGGSLRLSCAASGFTFQDNAMGWYRHAPGKERELVASITGSGGSTYYADSVKGRFTISRDNAKNTVYLQMNSLKPEDTAVYYCAAETYTRSALVLYGSREMEYWGQGTQVTVSS | low polyreactivity
QVQLVESGGGLVQAGGSLRLSCAASGLTFSPYAMGWYRQAPGKERELVATITIGGSTKYADSVKGRFTISRDNAKNTVYLQMNSLKPEDPAVYYCAVRSGYVTRRYDYWGQGTQVTVSS | low polyreactivity
QVQLVESGGGLVQAGGSLRLSCAASGRTFANNAMGWYRQAPGKERELVAAISNGDSTYADSVKGRFTISRDNAKNTVYLQMNSLKPEDTAVYYWATRTKEDYTGDYWGQGTQVTVSS | low polyreactivity
QVQLVESGGGLVQAGGSLRLSCAASGLTFRKYAMGWYRQAPGKERELVAGISSGGSTYYADSVKGRFTISRDNAKNTVYLQMNSLKPEDTAVYYCAAKALRTMYYWGQGTQVTVSS | high polyreactivity
QVQLVESGGGLVQAGGSLRLSCAASGSIFNSYAMGWYRQAPGKERELVAAISRSGGRTYYADSVKGRFTISRDNAKNTVYLQMNSLKPEDTAVYYCAADAGSYLSYKAWARKMYYLGQGTQVTVSS | high polyreactivity
QVQLVESGGGLVQAGGSLRLSCAASGLIFYRNAMGWYRQAPGKERELVAAISKNGGNTYYADSVKGRFTISRDNAKNTVYLQMYSLKPEDTAVYYCAARELYGPFGYWGQGTQVTVSS | high polyreactivity
QVQLVESGGGLVQAGGSLRLSCAASGFIFWYYAMGWYRPAPGKERELVATITRGGSTYYADSVKGRFTISRDNAKNTVYLQLNSLKPEDTAVYYCNAVRPKIYDYWGQGTQVTLSS | high polyreactivity
QVQLVESGGGLVQAGGSLRLTCAASGSIFYTNAMGWYRQAPGKERELVAAIRWSGGRTYYADSVKGRFTISRDNAKNTVYLQMNSLKPEDTAVYYCTVVVRYPSAYAYWGQGTQVTLSS | high polyreactivity
QVQLVDSGGGLVQAGGSLRLSSAASGYIFVVNAMGWYRPAPGKERELVAAIDWGGGSTYADSVKGRFTISRDNAKNTVYLQMNSLKPEDTAVYYCAADLWPYPTDYWGQGTQVTVSS | low polyreactivity
QVQLVESVGGLVQAGGSLRLTCAASGRIFEINTMGWYRQAPGKERELVAAISRGGGSTYYADSVKGRFTISRDNAKNTVYLQMNSLKPEDTAVYYCAAASYYVEGDYWGQGTQVTVSS | low polyreactivity
QVQLVESGGGLVQAGGSLRLSCAASGNIFLYYAMGWYRQAPGKERELDADIDSSGASTYYADSVKGRFTISRDNAKNNVYLQMNSLKPEDTAVYYCAAEFHWWYAGYDYGYWGQGTQVTVSS | low polyreactivity
QVQLEESGGALVQAGGSLRLSCAASGFTFYRNALGWNRQAPGQERELVGAITRGGSTTYADSVKGRFTISRDNAKNTVYLQMNRMKPEDTAVYYCAAPKYIWYRDLNYWGQGTQVTVSS | high polyreactivity
QVQLVESGGGLVQAGGSLRLSSAASGSTFGSYTMGWYRQAPGKERELVAAINWSGGNTYYADSVKGRFTISRDNAKNTVYLQMNSLKPEDPAVYYCAAAFYIYGVEGDYWGQGTQVTVSS | low polyreactivity
QVQLVESAGGLVQAGGSLRITCAASASTYSWYTMGWYREAPGKERELVASINYSGTNTYYADSVKGRFTISRDNAKNTVYLQMNSLNPEDTAVYYCAARPRTKLTAYNYCGQGTQVTVSS | high polyreactivity
QVQLVESGGGLVQAGGSIRLSCAASGSIFWYNAMGWYRQAPGKERELVAGITSGGDTNYADSVKGRFTISRDNAKNTVYLQMNRLKPEDTAVYYCAKRWDGGRRYDYWGQGTQVTVSS | low polyreactivity
